Here are results for one molecule from patent US20190119357A1, “MESSENGER RIBONUCLEIC ACIDS FOR THE PRODUCTION OF INTRACELLULAR BINDING POLYPEPTIDES AND METHODS OF USE THEREOF” (ModernaTX, Inc., priority 2015, published 2019).

Data set [1] deals with T1, BCL-XL (Homo sapiens, UniProt Q07817).
T1 construct: endogenous in cells; host or cells: cells transfected with SQT-BH3 mRNA (HeLa by context)
Description: Co-immunoprecipitation after mRNA transfection. Particulars: within two hours after mRNA transfection. It counts as binding.

Data set [2] deals with primary hepatocytes. Description: Apoptosis induction by MC3 LNP-formulated mRNAs in primary hepatocytes cultured in vitro. The format is cell-based.
Data set [3] is described as follows: Survival of mice treated with MC3 LNP formulations of mRNA with or without miR-122 binding site. The format is in vivo. The text has this: Negative controls included mRNA encoding SQT alone or SQT with a miR-122 binding site. Constitutively active caspase 6 was used as a positive control. An LNP containing a non-translatable factor IX cap 0 mRNA was used to control for mRNA and lipid effects that might be independent of the proteins encoded by the modified mRNAs. […] This dose was 10 times greater than a dose of mRNA encoding SQT-PUMA-BH3 that killed 40% of mice.

Data set [4] has as its system Hep3B cells. Description: Cell death by YOYO-3 with MC3-formulated LNPs. The format is cell-based. Particulars: relatively high concentration. Here is the method: The efficacy of mRNAs encoding SQT-BH3 constructs in inducing cell death was tested both in hepatocellular carcinoma cell lines as well as in primary hepatocytes using lipid nanoparticle (LNP)-formulated constructs. Hep3B cells were treated with varying doses (0.78 ng to 50 ng) of MC3-formulated LNPs in the presence of YOYO-3 (Life Technologies), a DNA dye that is taken up preferentially by dead cells that is used to measure the extent of cell death. MC3 lipid nanoparticles included MC3 50%, DSPC 10%, Cholesterol 38.5%, PEG-DMG 1.5%, N:P ˜5.5.

Data set [5] deals with human hepatocellular carcinoma (Hep G2) cells. Briefly: Cell death and morphology after mRNA transfection. The format is cell-based. The text has this: A representative graph of the apoptotic ability of the SQT-BH3 constructs is shown in FIG. 2, showing the cell killing capacity of the SQT-BH3 constructs in Hep G2 cells.
The subject of data set [6] is HepG2 cells. Briefly: Cell death by YOYO3 with MC3 LNPs. The format is cell-based.
Data set [7] concerns Orthotopic Hep3B xenografts. Briefly: Efficacy in SCID mice bearing orthotopic Hep3B xenografts. To be noted: orthotopic Hep3B study, over the course of the study. It counts as in vivo. Here is the method:
LNPs comprising the cationic lipid MC3 were tested using the optimal percentage of PEG-lipid and optimal PEG length (1.5% DSPE, C18, as described in Example 10), for in vivo targeted delivery of SQT-PUMA-BH3 in a model of Orthotopic Hep3B xenografts.
SCID mice were anesthetized, a transverse incision was made below the xiphoid and Hep3B cells (2×10^6) were injected into the upper left lobe of the liver, followed by surgical closure of the abdomen and skin. Tumor growth was measured by whole body bioluminescent imaging (BLI) in anaesthetized animals following SC injection of 150 mg/kg D-Luciferin, in an imaging chamber (Spectrum CT). Bioluminescence was measured as total flux (photons/second) of the entire animals. On Day 8 following tumor implantation when tumor BLI reached an average of 3.17×10^8 photons/sec (range 12.37×10^7−1.38×10^9 photons/sec), animals were randomized into study groups and treated weekly over a three week period (Days 9, 16 and 23) with PBS IV (Group 1), SQT 3 mg/kg IV (Group 2), mmRNA encoding SQT-PUMA-BH3 (comprising a miR122 binding site) weekly at 0.75 mg/kg (Group 3), 1.5 mg/kg (Group 4) or 3 mg/kg IV (Group 5; 12 animals per group). One week following the final dose, animals were euthanized and tumors excised and weighed.

Data set [8] deals with human melanoma cells (A375). Description: Cell death after mRNA transfection. It counts as cell-based.
In data set [9] the test system is systemic TF1a xenografts. Briefly: Systemic TF1a xenografts in SCID mice (AML model). It counts as in vivo. Here is the method:
LNPs comprising the cationic lipid MC3 were tested using the optimal percentage of PEG-lipid and optimal PEG length (1.5% DSPE, C18, as described in Example 8), for in vivo targeted delivery of SQT-PUMA-BH3 in two different in vivo models of acute myeloid leukemia (AML). One model used systemic TF1a xenografts in SCID mice. The other model used systemic HEL xenografts in SCID mice. Each of these models uses a human erythroleukemia cell line. The HEL erythroleukia cell line is described in, for example, Martin, P. and Papayannopoulou, T. (1982) Science 216:1233-1235. The TF1 erythroleukmia cell line (from which TF1a is derived) is described in, for example, Kitamura, T. et al. (1989) J. Cell. Physiol. 140:323-334. Unless otherwise noted, mRNAs were fully modified with N1-methlypseudouridine to avoid stimulating an innate immune response to said mRNAs when administered in vivo.
In a first set of experiments, TF1a cells stably expressing luciferase (TF1α-luc cells) were implanted systemically in SCID mice. Tumor growth was measured by whole body bioluminescent imaging (BLI) in anaesthetized animals following SC injection of 150 mg/kg D-Luciferin, in an imaging chamber (Spectrum CT). Animals showing an increasing tumor burden at day 12 post-cell implantation were recruited for treatment. Animals were randomized into four study groups, as follows: PBS IV (Group 1), cytarabine at 2 mg/kg three times per week (Group 2), LNPs containing mRNA encoding Green Fluorescent Protein (GFP) at 3 mg/kg one time per week (Group 3) and LNPs containing mRNA encoding SQT-PUMA-BH3 (comprising a miR122 binding site) at 3 mg/kg one time per week. Mice were dosed intravenously for four weeks.

The target of data set [10] is T2, BCL-2 (Homo sapiens, UniProt P10415).
T2 construct: endogenous in cells; host or cells: cells transfected with SQT-BH3 mRNA (HeLa by context)
Description: Co-immunoprecipitation after mRNA transfection. To be noted: within two hours after mRNA transfection. The format is binding.

Data set [11] has as its system Hep3B SC tumors. Briefly: Combination with sorafenib in SCID mice bearing Hep3B SC tumors. The format is in vivo. Particulars: mmRNA with miR122 binding site, 1.5 mg/kg IV weekly alone, three weeks, end of study. Here is the method: SCID mice bearing Hep3B SC tumors (tumor size range 140-227 mm^3; average=183 mm^3) were dosed over a three week period with a combination of 0.5% methyl cellulose daily and SQT IV at 1.5 mg/kg alone weekly (Days 1, 8 and 15; Group 1), Sorafenib (in 0.5% methyl cellulose) at 10 mg/kg orally daily alone (Group 2), mmRNA encoding SQT-PUMA-BH3 (comprising a miR122 binding site) weekly at 1.5 mg/kg IV alone (Group 3) or a combination of mmRNA encoding SQT-PUMA-BH3 (with miR122 binding site) at 1.5 mg/kg IV weekly with sorafenib at 10 mg/kg orally daily (Group 4; 10 animals per group).

The mark [12] stands for this setting: TF1a-SCID mice, 3 mg/kg one time per week.

Entries after “also recorded” stand apart in the source; their conditions may differ.

T1 sequence (Q07817 whole entry): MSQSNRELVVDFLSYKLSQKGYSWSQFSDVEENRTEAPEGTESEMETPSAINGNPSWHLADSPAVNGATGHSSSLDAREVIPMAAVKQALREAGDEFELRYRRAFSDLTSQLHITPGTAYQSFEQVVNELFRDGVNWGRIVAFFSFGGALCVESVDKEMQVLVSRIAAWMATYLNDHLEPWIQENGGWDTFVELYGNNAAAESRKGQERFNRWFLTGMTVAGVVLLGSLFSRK
T2 sequence (P10415 whole entry): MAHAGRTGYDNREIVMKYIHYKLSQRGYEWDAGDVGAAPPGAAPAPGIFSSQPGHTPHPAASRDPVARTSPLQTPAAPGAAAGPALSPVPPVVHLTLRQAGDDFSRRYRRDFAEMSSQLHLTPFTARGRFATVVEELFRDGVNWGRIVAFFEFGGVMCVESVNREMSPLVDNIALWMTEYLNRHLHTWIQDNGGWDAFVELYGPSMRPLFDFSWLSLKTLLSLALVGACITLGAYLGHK

B1: SQT-PUMA-BH3: mRNA (SEQ ID NO: 49, FLAG) encoding SQT scaffold with PUMA BH3 domain in N-terminus, fully modified with 1-methyl-pseudouridine (nucleic acid)
chain: ATGATCCCAAGAGAAGAACAGTGGGCACGCGAAATTGGAGCTCAACTCAGACGGATGGCCGACGACCTGAACGCCCAGTACGAGCGGCGGGGACTCTCAGAAGCGAAGCCTGCCACCCCCGAAATCCAGGAAATCGTCGACAAGGTCAAGCCGCAGCTTGAGGAAAAGACCAACGAGACTTACGGAAAACTGGAGGCCGTGCAGTATAAGACCCAAGTGTTGGCCTCCACCAACTACTACATTAAGGTCCGCGCCGGCGATAACAAGTACATGCACCTGAAGGTGTTCAATGGTCCTCCGGGACAGAACGCGGACAGGGTGCTGACTGGCTACCAAGTGGACAAGAACAAGGACGACGAGCTGACGGGCTTCGACTACAAGGATGATGATGACAAA
modifications: FLAG tag, 1-methyl-pseudouridine; Synthetic SQT-PUMA-BH3 mRNA sequence with FLAG epitope tag
For B1, the “interaction with BCL-XL by co-immunoprecipitation” value in [1] was “able interact”. For the same molecule, the PARP-1 cleavage result in data set [2] (LNPs) is reported as “also induced PARP-1 cleavage in primary hepatocytes”. Besides, in [2] (MC3-LNP-formulated), the “apoptosis (YOYO-3 dye uptake and fluorescence) as a function of time” value is given as “induce apoptosis”. In [3] (mRNA without miR-122 binding site, dose 10 times lower than 1 mg/kg), the mice killed is 40%. Besides, the “toxicity / tolerable dose / survival” value in data set [3] (mice, MC3 LNP formulations, 0.1-3 mg/kg) was “very toxic over a range of doses”. In data set [3] (mice, MC3 LNP, mRNA without miR-122 binding sites, range of doses), the “death of the treated animals, time” value is at most 5 h. Besides, the survival rate result in data set [3] (mice, lowest dose of 0.1 mg/kg, mRNA without miR-122 binding sites) is recorded as “approximately 60%”. Further, in data set [4], the “apoptosis and cell death (YOYO-3)” value is “both induced apoptosis and cell death; also recorded: kills Hep3B cells at higher concentrations”; the “efficacy and timing of cell killing, comparison” value is “showed a modest increase in both the efficacy and timing of cell killing compared to SQT-Bim-BH3”. In addition, in data set [5], the cell death result was “caused rapid cell death almost immediately following transfection; also recorded: underwent cell death almost immediately following transfection” and the cell morphology result is reported as “rounded-up cell morphology that is characteristic of apoptotic cells”. Besides, the “cell death (YOYO3 staining)” value in data set [6] is “lead to cell death; also recorded: kills HepG2 cells”. For the same molecule, the “percent body weight change / tolerability” value in [7] is recorded as “did not significantly impact body weight”. Moreover, in data set [8], the cell death entry is “caused rapid cell death almost immediately following transfection”. Besides, in data set [9] (setting [12]), the body weight entry is on record as “did not cause significant body weight changes” and the “tolerability / treatment-related mortality” value is recorded as “well tolerated, resulting in no treatment-related mortality”. For the same molecule, the “systemic tumor growth (BLI)” value in [9] (TF1a-SCID, mRNA LNPs 3 mg/kg one time per week, cytarabine 2 mg/kg three times per week, IV, four weeks) is reported as “led to greater tumor growth inhibition than treatment with cytarabine”. Further, in data set [10], the “interaction with BCL-2 by co-immunoprecipitation” value is “to a lesser extent”. Further, in data set [11], the “tumor growth inhibition (TGI)” value was found to be 28%.
